Measured values as given in PMC11162469, “Discovery of RXFP2 genetic association in resistant hypertensive men and RXFP2 antagonists for the treatment of resistant hypertension” (Scientific Reports, 2024).

T1: linker-less human LDLa peptide (Q8WXD0 43-80) (Homo sapiens, UniProt Q8WXD0, not fully specified)
T1 construct: relaxin family peptide receptor 2 (RXFP2), human, LDLa module without the linker, residues 43-80; also called LDLa linker-less domain
T1 chain: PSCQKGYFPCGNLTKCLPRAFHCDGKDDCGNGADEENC


Legend:
Conditions in all cases: both partners purified
[1] = target: T2, human LDLa-linker protein (huRXFP2-LDLa-linker(38-105)) (Homo sapiens, UniProt Q8WXD0); assay: SPR; Biacore S200; goat anti-rat Fc gamma immobilised on a Series S CM5 chip, purified recombinant rat anti-RXFP2 antibodies captured at 5 µg/mL; rat or human LDLa-linker protein flowed as analyte at 20, 10, 5, 2.5, 1.75 and 0 nM; 1:1 fit model
T2 construct: relaxin family peptide receptor 2 (RXFP2), human, LDLa module and linker, residues 38-105; Expressed as LDLa-linker, enterokinase site, rat Fc, 8xHis; The Biacore methods say only 'LDLa-linker protein'; also called human LDLa-linker domain; source: Expi293, transfected, purified (Histrap excel, SEC); enterokinase digestion, Hispur Ni resin, Superdex 200; not shown: rat Fc, C-terminal, cleaved; …
T2 sequence (Q8WXD0 38-105): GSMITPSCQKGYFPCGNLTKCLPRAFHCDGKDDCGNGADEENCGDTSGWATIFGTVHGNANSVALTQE

[2] = target: T3, rat LDLa-linker protein (ratRXFP2-LDLa-linker(20-88)) (Rattus norvegicus, UniProt Q5ECL0); assay: as above
T3 construct: relaxin family peptide receptor 2 (RXFP2), rat, LDLa module and linker, residues 20-88; Expressed as LDLa-linker, enterokinase site, rat Fc, 8xHis; The Biacore methods say only 'LDLa-linker protein'; also called rat LDLa-linker domain; source: Expi293, transfected, purified (Histrap excel, SEC); enterokinase digestion, Hispur Ni resin, Superdex 200; not shown: rat Fc, C-terminal, cleaved; 8xHis, …
T3 sequence (Q5ECL0 entry or part of it): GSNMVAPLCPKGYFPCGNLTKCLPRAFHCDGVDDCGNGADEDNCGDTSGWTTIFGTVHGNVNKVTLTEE

[3] = target: T1, linker-less human LDLa peptide (Q8WXD0 …); assay: ELISA; human LDLa peptide (Q8WXD0 43-80) immobilised at 1 µg/mL in PBS on Maxisorp plates overnight at 4 °C; purified antibodies from 5 µg/mL, diluted 1:2 for 8 points, 1 h at room temperature; HRP secondary antibody, TMB

Binder	Kd [2] [nM]	Kd [1] [nM]	binding result [3]	binding result [1]
RXFP2 mAb 4H5 (antibody, V domains shown, heavy chain variable domain; rat IgG2b heavy chain constant region (rat IgG2b backbone, in-house construct); Recombinant in a rat IgG2b backbone; found as a mouse hybridoma clone; source: Expi293, transfected, purified (Protein G)) VH: QVQLKQSGPGLVQPSQSLSITCTVSGFSLTNYGVHWVRQSPGKGLEWLGVIWRDGNTDYNAAFMSRLSITKDNSKSQVFFEMNSLQVDDTAIYYCCRGDGYYAMGYWGQGTSVTVSS VL: DIQMTQSPASLSVSVGETVTITCRASENIYSNLAWYQQRQGRSPQLLVYAATNLADGVPSRFSGSGSGTQYSLKINSLQSEDFGNYYCQHFWGSPRTFGGGTKLEIK	0.35			no binding (tested: 20 nM (highest analyte concentration))
RXFP2 mAb 3G4 (antibody, V domains shown, heavy chain variable domain; rat IgG2b heavy chain constant region (rat IgG2b backbone, in-house construct); Recombinant in a rat IgG2b backbone; found as a mouse hybridoma clone; source: Expi293, transfected, purified (Protein G)) VH: QVQLKESGPGLVAPSQSLSITCTVSGFSLTSYGVSWVRQPPGKGLEWLGVIWGDGSTNYHSALISRLSISKDNSKSQVFLKLNSLQTDDTATYYCAKSLGYYAMDYWGQGTSVTVSS VL: DIQMTQSPASLSVSVGETVTITCRASENIYSNLVWYQQKQGKSPQLLVYAATNLAEGVPSRFSGSGSGTQYSLKINSLQSEDFGSYYCQHFWGPPWTFGGGTKLEIK	2.07			no binding (tested: 20 nM (highest analyte concentration))
RXFP2 mAb 3F1 (antibody, V domains shown, heavy chain variable domain; rat IgG2b heavy chain constant region (rat IgG2b backbone, in-house construct); Recombinant in a rat IgG2b backbone; found as a mouse hybridoma clone; source: Expi293, transfected, purified (Protein G)) VH: QVQLKESGPGLVAPSQSLSITCTVSGFSLTDYGVSWIRQPPGKGLEWLGVIWGGGSTDYNPALKSRLSISKDNSKSQVFLKMNSLQADDTAMYYCVKHEGYYAMDYWGQGTSVTVSS VL: DIQMTQSPASLSVSVGETVTITCRASENIYSNLAWYQQKQGKSPHLLVYAVTNLADGVPSRFSGSGSGTQYSLKINSLQSEDFGSYYCQHFWGTPYTFGGGTKLEIK	1.24			no binding (tested: 20 nM (highest analyte concentration))
RXFP2 mAb 4G7 (antibody, V domains shown, heavy chain variable domain; rat IgG2b heavy chain constant region (rat IgG2b backbone, in-house construct); Recombinant in a rat IgG2b backbone; found as a mouse hybridoma clone; source: Expi293, transfected, purified (Protein G)) VH: EVKLVESGGGLVQPGASLRLSCATSGFTFTDYYMSWVRQPPGKALEWLGFIRNKATGYTTEYSASVKGRFTISRDNSQSILYLQMNTLRAEDSATYYCARDLYYGDWYFDVWGAGTTVTVSS VL: not shown				no binding (tested: 20 nM (highest analyte concentration))
RXFP2 mAb 3F3 (antibody, V domains shown, heavy chain variable domain; rat IgG2b heavy chain constant region (rat IgG2b backbone, in-house construct); Recombinant in a rat IgG2b backbone; found as a mouse hybridoma clone; source: Expi293, transfected, purified (Protein G)) VH: QVQLQQPGSVLVRPGASVKLSCKASGYIFTSYWMHWVKQRPGQGLEWIGEIYPNSGRTSYNEKFKGKATVTVDTSSSTAYVDLSSLTSEDSAVYYCASGGHWFAYWGQGTLVTVSA VL: DIQMTQSSSSFSVSLGDRVTITCKASEDIYNRLAWYQQKPGNAPRLLISGATSLEAGVPSRFSGSGSGKDYTLSITSLQTEDVSTYYCQQYWITPYTFGGGTKLEIK	11.4			no binding (tested: 20 nM (highest analyte concentration))
RXFP2 mAb 2H3 (antibody, V domains shown, heavy chain variable domain; rat IgG2b heavy chain constant region (rat IgG2b backbone, in-house construct); Recombinant in a rat IgG2b backbone; found as a mouse hybridoma clone; source: Expi293, transfected, purified (Protein G)) VH: QVTLKESGPGILQPSQTLSLTCSFSGFSLSTSGMSVGWIRQPSGKGLEWLAHIWWNDDKYYNPALKSRLTISKDTSNNQVFLKIASVVTADTATYYCARIGYYDGSPHAMDYWGQGTSVTVSS VL: not shown				no binding (tested: 20 nM (highest analyte concentration))
RXFP2 mAb 4F6 (antibody, V domains shown, heavy chain variable domain; rat IgG2b heavy chain constant region (rat IgG2b backbone, in-house construct); Recombinant in a rat IgG2b backbone; found as a mouse hybridoma clone; source: Expi293, transfected, purified (Protein G)) VH: EVQLQQSGPELVKPGASVKMSCKASGYTFTNYVLHWVKQKPGQGLEWIGYINPYNDGSKYNEKFKGRATLTSDKSSSTAYMELSSLTSEDSAVYYCARGGWLLDYFDYWGQGTTLTVSS VL: DVLMTQSPLSLPVSLGEQASISCRSSQSIVHSDGDTYLEWYLQKPGQSPNLLIYKVSNRFSGVPDRFSGSGSGTDFTLKISRVEAEDLGVYYCFQGSHVPPTFGGGTKLEIK	1.7	11.7	binds	
RXFP2 mAb 4B1 (antibody, V domains shown, heavy chain variable domain; rat IgG2b heavy chain constant region (rat IgG2b backbone, in-house construct); Recombinant in a rat IgG2b backbone; found as a mouse hybridoma clone; source: Expi293, transfected, purified (Protein G)) VH: QVQLQQSGAELVRPGSSVRISCKASGYAFSNSWINWVKQRPGQGLEWMGQIYPGDGNTNYNGRFKDKATLTADKSSSTAYMQLSSLTSEDSAVYFCARDHNYWGQGTTLTVSS VL: not shown	1.97	2.75	no binding (tested: 5 µg/mL (highest antibody concentration))	

Second part, led by results:

Kd [2] [nM]	Kd [1] [nM]	binding result [3]	Binder	binding result [1]
0.69			RXFP2 mAb 1F2 (antibody, V domains shown, heavy chain variable domain; rat IgG2b heavy chain constant region (rat IgG2b backbone, in-house construct); Recombinant in a rat IgG2b backbone; found as a mouse hybridoma clone; source: Expi293, transfected, purified (Protein G)) VH: QVQLKQSGPGLVQPSQSLSITCTVSGFSLTAYGVNWVRQSPGKGLEWLGVIWSGGNTDYNAPFISRLSITKDNSKSQVFFKMNSLEADDTAIYYCARAKGYYAMDYWGQGTSVTVSS VL: DIQMTQSPASLSVSVGESVTITCRATENIYSNLVWYQQKQGQSPQLLVYAVTSLADGVPSRFSGSGSGTQYSLKINSLQSEDFGTYYCQHFWGTPYTFGGGTKLEIK	no binding (tested: 20 nM (highest analyte concentration))
0.32			RXFP2 mAb 4H2 (antibody, V domains shown, heavy chain variable domain; rat IgG2b heavy chain constant region (rat IgG2b backbone, in-house construct); Recombinant in a rat IgG2b backbone; found as a mouse hybridoma clone; source: Expi293, transfected, purified (Protein G)) VH: QVQLRQSGPSLVQPSQSLSITCTVSGFSLTNYGVHWVRQSPGKGLEWLGVIWRGGNTDHNAAFMSRLSITKDNSESQVFFKMNSLQVDDTAIYYCAKAEGYYALDYWGQGTSVTVYS VL: DIQMTQSPASLSVSVGETVTITCRASENIYSNLAWYQQKQGKSPQLLVYAVTNLADGVPSRFSGSGSGTQYSLKINSLQSEDFGSYYCQHFWGTPWTFGGGTKLEIK	no binding (tested: 20 nM (highest analyte concentration))
1.89			RXFP2 mAb 3H1 (antibody, V domains shown, heavy chain variable domain; rat IgG2b heavy chain constant region (rat IgG2b backbone, in-house construct); Recombinant in a rat IgG2b backbone; found as a mouse hybridoma clone; source: Expi293, transfected, purified (Protein G)) VH: QVQLKETGPGLVAPSQSLSITCTVSGFSLTNYGVNWVRQPPGKGLEWLVVIWSDGSTNYNSALKSRLSISKDNSKSQVFLKMNSLQTDDTAMYYCARQQGYYAMDYWGQGTSVIVSS VL: DIQMTQSPASLSVSVGETVTITCRASENIYSNLAWYQQKQGKSPQLLVYAVTNLADGVPSRFSGSGSGTQYSLKINSLQSEDFGSYYCQHFWGPPYTFGGGTKLEIK	no binding (tested: 20 nM (highest analyte concentration))
0.52			RXFP2 mAb 2D4 (antibody, V domains shown, heavy chain variable domain; rat IgG2b heavy chain constant region (rat IgG2b backbone, in-house construct); Recombinant in a rat IgG2b backbone; found as a mouse hybridoma clone; source: Expi293, transfected, purified (Protein G)) VH: QVQLKESGPGLVAPSQSLSITCTVSGFSLTTYGISWVRQPPGKGLEWLGVIWTGGGTNYNSALKSRLSISKDNSKSQVFLKMNSLQTDDTARYYCARTEGYYVMDYWGQGTSVTVSS VL: DIQMTQSPASLSVSVGETVTITCRASENIYSNLVWYQQKQGKSPQLLVYAATNLADGVPSRFSGSGSGTQYSLKINNLQSEDFGTYYCQHFWGPPWTFGGGTKLEIK	no binding (tested: 20 nM (highest analyte concentration))
0.55			RXFP2 mAb 4B8 (antibody, V domains shown, heavy chain variable domain; rat IgG2b heavy chain constant region (rat IgG2b backbone, in-house construct); Recombinant in a rat IgG2b backbone; found as a mouse hybridoma clone; source: Expi293, transfected, purified (Protein G)) VH: QVQLKQSGPGLVQPSQSLSITCTVSGFSLSRYGVHWVRQSPGKGLEWLGVIWSGGSTEYNAVFKSRLSISKDNSKSQVFFKMNSLQANDTAIYYCVRADGYYAMEYWGQGTSVTVSS VL: DIQMTQSPASLSVSVGETVTITCRASENIYSNLAWYQQKQGKSPQLLVYAVTNLADGVPSRFSGSGSGTQYSLKINSLQSEDFGNYYCQHFWGTPYTFGGGTKLEIK	no binding (tested: 20 nM (highest analyte concentration))
0.18			RXFP2 mAb 1G1 (antibody, V domains shown, heavy chain variable domain; rat IgG2b heavy chain constant region (rat IgG2b backbone, in-house construct); Recombinant in a rat IgG2b backbone; found as a mouse hybridoma clone; source: Expi293, transfected, purified (Protein G)) VH: EVQLQQSGPELVKPGASVKMSCKASGYTFTDYNMHWVKQKPGQGLEWIGYINPYNDGTEYNEKFKGKATLTSDKSSSTAYMDLSSLTSEDSAVYYCARGLWFAMNYWGQGTSVTVSS VL: DIQMTQSSSSFSVSLGDRVTITCKASEDIYNRLAWYQQKPGNTPRLLISGATILETGVPSRFSGSGSGKDYTLSIISLQTEDVATYYCQQYWIIPPTFGGGTKLEIK	no binding (tested: 20 nM (highest analyte concentration))
1.01			RXFP2 mAb 4H1 (antibody, V domains shown, heavy chain variable domain; rat IgG2b heavy chain constant region (rat IgG2b backbone, in-house construct); Recombinant in a rat IgG2b backbone; found as a mouse hybridoma clone; source: Expi293, transfected, purified (Protein G)) VH: QIQLVQSGPELKKPGETVKISCKTSGYTFTKYPMHWVKQAPGEGLKWMGWINTYSGLPTFADDFKGRFAFSLETSANTADLQINNLKNEDMATYFCAREGKKLSGYFDYWGQGTTLTVSS VL: DIKMTQSPSSMYASLGERVTITCKASQDINSYLTWFQQKPGQSPKTLIYRANRFVDGVPSRFSGSGSGQDYSLTITSLEYEDMGIYYCLQYDEFPYTFGGGTQLEIK	no binding (tested: 20 nM (highest analyte concentration))
0.21	2.91	binds	RXFP2 mAb 4G6 (antibody, V domains shown, heavy chain variable domain; rat IgG2b heavy chain constant region (rat IgG2b backbone, in-house construct); Recombinant in a rat IgG2b backbone; found as a mouse hybridoma clone; source: Expi293, transfected, purified (Protein G)) VH: EVQLQQSGPELVKPGASVKLSCKASGYTFTSYVMHWVKQKPEQGLEWIGYKNPSNDGIKYNEKFKGKATLTSDKSSNIAYMELFSLTSEDSAVYYCARSDFGSVWAMDYWGQGTSVTVSS VL: SIVMTQTPKFLLVSAGDRVTITCKASQSVNDDIVWYQQKPGQSPKLLIYYASNRYTGVPDRFTGSGYGTDFTFTISTVQAGDLAVYFCQQDYSSPFTFGSGTKLEIK	
4.23			RXFP2 mAb 4A5 (antibody, V domains shown, heavy chain variable domain; rat IgG2b heavy chain constant region (rat IgG2b backbone, in-house construct); Recombinant in a rat IgG2b backbone; found as a mouse hybridoma clone; source: Expi293, transfected, purified (Protein G)) VH: DVQLVESGGGLVQPGGSRKLSCAASGFTFSTFGMHWVRQAPEKGLEWVAYISSGSSTIYYADTVKGRFTISRDNPKNTLFLQMTSLRSDDTAMYYCSRSYYGSAHYFDYWGQGTTLTVSS VL: DIQMTQSPASLSVSVGETVTITCRASENIYSNLAWYQQKQGKSPQLLVYVATNLADGVPSRFSGSGSGTQYSLRINNLQSEDFGNYYCQHFWGTPPTFGGGTKLEIK	no binding (tested: 20 nM (highest analyte concentration))
